Residue numbers refer to the chain shown, from its start. One block for each molecule: values may come before it.
Experiments:
Human recombinant CD38 = Human recombinant CD38 (human, UniProt P28907 43-300, limits assumed); test: cell-based or functional assay
[1] = biological target: T1, HA-CD38 (N-terminal HA tag, extracellular domain of human CD38), wild type (human, UniProt P28907 45-300); test: ELISA, HA-CD38 captured by anti-HA antibody
T1 construct: Used as culture supernatant of HEK-293F cells, captured by anti-HA antibody; also called wild type (WT) CD38; pEE13.4HACD38

[2] = biological target: T2, human CD38 on CD38-transfected CHO cells (CHO-CD38 cells) (human, UniProt P28907 1-300); test: flow cytometry on CHO-CD38 cells, anti-human IgG-FITC
T2 construct: The construct used to transfect the CHO cells is not described; also called CHO cells transfected with CD38; cellular expressed CD38

CD38 on Daudi-luc cells = biological target: T3, CD38 on Daudi-luc cells (UniProt P28907 1-300); test: flow cytometry on Daudi-luc cells, anti-human IgG-FITC
T3 construct: whole, on cells; also called Daudi cells

- binding result [1]: binds
- binding result [2]: binds
- binding result (CD38 on Daudi-luc cells): binds
B2: anti-CD38 antibody 026 (antibody, human IgG1, V domains shown)
VH: QVQLVQSGAEVKKPGSSVKVSCKAFGGTFSSYAISWVRQAPGQGLEWMGRIIRFLGKTNHAQKFQGRVTLTADKSTNTAYMELSSLRSEDTAVYYCAGEPGDRDPDAVDIWGQGTMVTVSS
VL: DIQMTQSPSSLSASVGDRVTITCRASQGIRSWLAWYQQKPEKAPKSLIYAASSLQSGVPSRFSGSGSGTDFTLTISSLQPEDFATYYCQQYNSYPLTFGGGTKVEIK
notes: also called -057

- binding result [1]: binds
- binding result [2]: binds
- binding result (CD38 on Daudi-luc cells): binds
B3: anti-CD38 antibody 049 (antibody, human IgG1, V domains shown)
VH: B2 VH with K12M, F25S, S30R, R53V, H60Y, N77T, A97T, D102A, V108F
VL: B2 VL with S93N

- binding result [2]: binds
- binding result (CD38 on Daudi-luc cells): binds
B5: anti-CD38 antibody 056 (antibody, human IgG1, V domains shown)
VH: QVQLVQSGAEVKKPGSSVKVSCKPSGGTFRSYAISWVRQAPGQGLEWMGRIIVFLGKVNYAQRFQGRVTLTADKSTTTAYMELSSLRSEDTAVYYCTGEPGARDPDAFDIWGQGTMVTVSS
VL: B2 VL with S93N

Continued, molecule first:

Molecule: HuMab-KLH (antibody)
- pmol cADPR/min (reverse cyclase reaction) (pmol cADPR/min) (Human recombinant CD38): 4.3

B1: anti-CD38 antibody 025 (antibody, human IgG1, V domains shown)
VH: B2 VH with T58A
VL: B2 VL
- binding result [1]: binds
- binding result [2]: binds
- binding result (CD38 on Daudi-luc cells): binds

B4: anti-CD38 antibody 028 (antibody, human IgG1, V domains shown)
VH: B2 VH with K57I, T58A, H60Y, T71I, D102E
VL: B2 VL
- IC50 of inhibition of NAADP production (base-exchange activity, HPLC) (Human recombinant CD38): 0.14 µg/mL

— patent publication US20130209355A1 (Genmab, published 2013)
